The text below walks through data of patent publication US20190233517A1 (published 2019).

Assay [1] has as its target T1, CD20 on the cell surface of Raji cells (human, UniProt P11836 1-297).
T1 construct: whole, on cells; also called CD20 (Raji)
T1 sequence (looked up): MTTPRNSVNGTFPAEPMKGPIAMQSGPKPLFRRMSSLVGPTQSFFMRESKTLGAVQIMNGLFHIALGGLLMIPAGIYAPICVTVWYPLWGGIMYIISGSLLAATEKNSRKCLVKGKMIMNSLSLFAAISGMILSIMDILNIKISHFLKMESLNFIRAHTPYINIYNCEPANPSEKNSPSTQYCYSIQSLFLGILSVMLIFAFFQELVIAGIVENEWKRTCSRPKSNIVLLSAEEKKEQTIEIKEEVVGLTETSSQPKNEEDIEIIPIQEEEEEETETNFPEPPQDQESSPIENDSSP
Put plainly: flow cytometry on Raji cells. On the technique in general: Flow cytometry measures light scatter and fluorescence of single cells or particles in a stream.
Excerpt: (§1) Raji cell was used for detecting human B cell binding. […] Cells were washed in PBS buffer containing 2% FBS. […] Cells were washed and signal was detected with a BD FACSVerse flow cytometer according to manufacture's protocols.

Assay [2] has as its target T2, cynomolgus CD20 on transiently transfected HEK 293 cells (cynomolgus, UniProt M4ZHZ6 1-297).
T2 construct: whole, on cells; also called cynoCD20
T2 sequence: T1 sequence (looked up) with S25P, F31L, T51A, A157V, K217R, N226S, I227V, T239V
Put plainly: flow cytometry on HEK 293 cells transfected with cynoCD20.
Excerpt: as §1

Assay [3] addresses membrane EGFR (human, UniProt P00533 25-1210). The experiment in a line: cell-based or functional assay.
In assay [4] the target is T1, CD20 on the cell surface of Raji cells. The experiment in a line: flow cytometry on Raji cells, 100 nM.

Substitutions are numbered along the chain they refer to. Names and notes keep the numbering of the source.

B1: FIT018a CD20 (Ofatumumab)/CD3 mAb (bispecific antibody, human IgG1, kappa, lambda, L234A L235A)
chain 1: not shown
chain 2: EVQLVESGGGLVQPGRSLRLSCAASGFTFNDYAMHWVRQAPGKGLEWVSTISWNSGSIGYADSVKGRFTISRDNAKKSLYLQMNSLRAEDTALYYCAKDIQYGNYYYGMDVWGQGTTVTVSSASTKGPSVFPLAPSSKSTSGGTAALGCLVKDYFPEPVTVSWNSGALTSGVHTFPAVLQSSGLYSLSSVVTVPSSSLGTQTYICNVNHKPSNTKVDKKVEPKSC
chain 3: ELVVTQEPSLTVSPGGTVTLTCRSSTGAVTTSNYANWVQQKPGQAPRGLIGGTNKRAPGTPARFSGSLLGGKAALTLSGVQPEDEAEYYCALWYSNLWVFGGGTKLTVLGQPKAAPSVTLFPPSSEELQANKATLVCLISDFYPGAVTVAWKADSSPVKAGVETTTPSKQSNNKYAASSYLSLTPEQWKSHRSYSCQVTHEGSTVEKTVAPTECS
On to B1, for which the binding result in assay [1] and in assay [2] was “binds” in each case.

B2: FIT013a cMet (h1332 (13.3.2L-A91T,H-42K,S97T))/EGFR (panitumumab) (bispecific antibody, human IgG1, kappa)
chain 1: not shown
chain 2: QVQLVQSGAEVKKPGASVKVSCKASGYTFTSYGFSWVRQAPGQGLEWMGWISASNGNTYYAQKLQGRVTMTTDTSTSTAYMELRSLRSDDTAVYYCARVYADYADYWGQGTLVTVSSASTKGPSVFPLAPSSKSTSGGTAALGCLVKDYFPEPVTVSWNSGALTSGVHTFPAVLQSSGLYSLSSVVTVPSSSLGTQTYICNVNHKPSNTKVDKKVEPKSC
chain 3: not shown
With B2, the “EGFR Depletion (%), H441 cell, FACS after >16 hrs at 37 C” value in assay [3] stood at 65.9%.

B3: OKT3/Ofatumumab FIT8-Ig (bispecific antibody, human IgG1, kappa)
chain 1: not shown
chain 2: not shown
chain 3: not shown
notes: FIT-Ig of 3 polypeptides, two copies of each chain, human IgG1 Fc
Regarding B3, the “Binding Intensity by FACS (MFI)” value in assay [4] was 274 MFI.

B4: cMet antibody h1332 (13.3.2L-A91T,H-42K,S97T) (antibody, V domains shown)
VH: QVQLVQSGAEVKKPGASVKVSCKASGYTFTSYGFSWVRQAPGQGLEWMGWISASNGNTYYAQKLQGRVTMTTDTSTSTAYMELRSLRSDDTAVYYCARVYADYADYWGQGTLVTVSS
VL: DIQMTQSPSSVSASVGDRVTITCRASQGINTWLAWYQQKPGKAPKLLIYAASSLKSGVPSRFSGSGSGTDFTLTISSLQPEDFATYYCQQANSFPLTFGGGTKVEIK
In the case of B4, the “EGFR Depletion (%), H441 cell, FACS after >16 hrs at 37 C” value in assay [3] is 0%.

B5: OKT3/Ofatumumab FIT7-Ig (bispecific antibody, human IgG1, kappa)
chain 1: not shown
chain 2: not shown
chain 3: not shown
notes: as for B3
For the molecule B5, the “Binding Intensity by FACS (MFI)” value in assay [4] was 291 MFI.
